From the supplement of paper PMC10567573 come the findings set out here.

± gives the standard deviation.

The data set in a line: protein stability index of a GFP-peptide fusion (GPS, HEK-293T) (PSI 1-6); higher = more stable.
The mark [1] stands for this setting: treatment: DMSO, c terminus: a fixed tail appended.
[2] abbreviates: treatment: MLN4924 1 uM, 8 h, c terminus: a fixed tail appended.
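Also: 24-mer peptide tiles fused after GFP, lentivirally expressed, FACS-sorted into six equal bins by GFP/DsRed ratio, decoded by Illumina sequencing, PSI is the read-weighted mean bin number.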

For DERRDAEERASLAGNRNSMVIHIP [KCNK9], the protein stability index is, setting by setting: under setting [1], 4.24 ± 0.08; under setting [2], 4.51 ± 0.086.

Consider RAPPKRKRKRVKQRINTYVFVGNQ [PCMTD1], for which the protein stability index runs as follows: under setting [1], 3.53 ± 0.15; under setting [2], 3.41 ± 0.43. On the same counts, the results for RLLRDSEAFCHANCSGPAPAAKPD [P3H4] are 4.01 ± 0.35 and 4.01 ± 0.47. The corresponding values for NRNLQKFSLFGDISVLQQQGSLSN [FBXO33] are 2.83 ± 0.28 and 2.86 ± 0.32. On the same counts, the results for KQAKVVARRESGGRPIKPPKKDLE [BRD3] are 5.08 ± 0.27 and 5.05 ± 0.24. As to GQVAEDRFPESHLPIQTPGAFLRT [TLE6], the protein stability index by setting is: under setting [1], 3.53 ± 0.48; under setting [2], 3.99 ± 0.38. The corresponding values for GLAGYLSGYDGTFLFQKPGDKYEH [POMT2] are 2.62 ± 0.7 and 2.91 ± 0.6. The corresponding values for ETFSTLKNWVKELRQHGPPNIVVA [RAB22A] are 2.4 ± 0.69 and 2.36 ± 0.14. The corresponding values for RRRGPRNKKRGWRRLAQEPLGLEV [NOP53] are 3.65 ± 0.18 and 3.73 ± 0.4. For the sequence AFELLGKNTFEFLKENNFQPYPLP [CLK3], the protein stability index is 2.51 ± 0.33 under setting [1] and 2.65 ± 0.086 under setting [2]. In turn, PEAKVLHTKRLYRAVVEAVHRLDL [SMG5] returned a protein stability index under setting [1] of 2.19 ± 0.3 and a protein stability index under setting [2] of 2.17 ± 0.11.

Sequence LIVTSLLLLPGLNQHGIILKYIGM [ARL6IP1] registered a protein stability index under setting [2] of 3.15 ± 0.81.

In the case of SEEALRADGFGDNPFYHCLVAEIL [SAT2], the protein stability index turned out to be 3.08 ± 0.24 under setting [1] and 3.26 ± 0.25 under setting [2].

For the sequence KGDVEEVQGPGVVGEFPIISPGRV [FBXO3], the protein stability index under setting [1] is 4.81 ± 0.27 and the protein stability index under setting [2] is 4.8 ± 0.2. Regarding MKQGGAALEGSALANGRALSAGSP [DLX1], the protein stability index is, setting by setting: under setting [1], 4.67 ± 0.29; under setting [2], 4.72 ± 0.13. Regarding DARDEELEKDTMDNWDEKKLEEVV [ZC3H15], the protein stability index reads like this: under setting [1], 5.45 ± 0.4; under setting [2], 5.21 ± 0.25. The corresponding values for AKKAMGYQPLVTMDDAMERTVQSF [NSDHL] are 3.62 ± 0.069 and 3.46 ± 0.39.

In turn, KGLEDTKSPQFNRYFYLLENIAWV [PDS5B] returned a protein stability index under setting [1] of 2.44 ± 0.89 and a protein stability index under setting [2] of 2.31 ± 0.37. The corresponding values for HKTAGKRYVYRFVCDLQSLLGYTP [ETS1] are 3.08 ± 1 and 2.66 ± 0.57.

For TMSRSLDGASVNENHEIYMKDSMS [EPB41L3], the protein stability index reads like this: under setting [1], 5 ± 0.17; under setting [2], 4.72 ± 0.43. On the same counts, the results for EGAQLKKVEQNSRPVSCSGRDALL [WASL] are 4.53 ± 0.39 and 4.72 ± 0.48. The corresponding values for TFDNDYSLSELLSQLDSGVSQAVE [RIPK4] are 4 ± 0.074 and 4.1 ± 0.26.

For LQRWCRAKHMGLEPPPEVWQVLKT [POLD4], the protein stability index was found to be 2.28 ± 0.056 under setting [1] and 2.56 ± 0.14 under setting [2]. On the same counts, the results for LIPKTWYSAEQFCVSRNSHLTSVT [CD207] are 2.17 ± 0.32 and 2.19 ± 0.28. Turning to VVAMARKLQDVFEMRFAKMPDEPV [BRD3], the protein stability index reads like this: under setting [1], 2.49 ± 0.29; under setting [2], 2.64 ± 0.35. Turning to AKYEYMEEQVILTEKDLLEDGFGE [SAT1], the protein stability index under setting [1] amounted to 4.02 ± 0.4 and the protein stability index under setting [2] was found to be 4.06 ± 0.37. The corresponding values for MVATANNRQTFVNSAIRFLRKYSF [CHIT1] are 2.65 ± 0.19 and 2.63 ± 0.14.

In the case of LCSPGHERRGTPADTEEPTKDPDV [PSD2], the protein stability index was 5.66 ± 0.19 under setting [1] and 5.43 ± 0.26 under setting [2]. The corresponding values for ILLQEIPIRSISLRSCYFSDPDCS [FBXO39] are 2.55 ± 0.54 and 2.91 ± 0.72.

Take YFFLYQYCSIHCSDRKQVRNIAN [CSTF3]: the protein stability index was found to be 3.03 ± 1.1 (treatment: DMSO, c terminus: native) and 3.22 ± 0.71 (treatment: MLN4924 1 uM, 8 h, c terminus: native). For ELQEKQKNEKLISLQEQLQRFLKK [TAF7L], the protein stability index is, setting by setting: under setting [1], 3.36 ± 0.33; under setting [2], 3.39 ± 0.15. On the same counts, the results for SWEPLSGPSTPSPVAAQFTSEGTT [FCHO1] are 4.61 ± 0.27 and 4.74 ± 0.22. Turning to KTLALARTMDIPRSVQNFRFFASS [ALDH8A1], the protein stability index under setting [1] stood at 2.58 ± 0.26 and the protein stability index under setting [2] came to 2.6 ± 0.3. Take QVVVLVRDNGDPSLSSTATVLLVL [PCDHGC5]: the protein stability index by setting is: under setting [1], 3.25 ± 0.44; under setting [2], 3.17 ± 0.23. On the same counts, the results for VVSMTTVGYGDMYPVTIGGKIVGS [KCNA1] are 2.29 ± 0.36 and 2.14 ± 0.24. In the case of FDPLRNEYFFDRNRPSFDAILYYY [KCNA1], the protein stability index by setting is: under setting [1], 2.68 ± 0.45; under setting [2], 2.73 ± 0.48. The corresponding values for PSNTGSRTTSVRCRGIPRGPVRPA [NEK8] are 3.89 ± 0.089 and 4 ± 0.17. On the same counts, the results for LAAKALLDQKKQDPRVQDFLQRCL [NET1] are 2.28 ± 0.31 and 2.42 ± 0.25. The corresponding values for EGGIFTSPNYPSKYPPDRECIYII [NETO1] are 2.76 ± 0.94 and 2.95 ± 0.7. On to TFEYTLLQPPHESRPQPIYYGFSE [ADAMTSL2], for which the protein stability index reads like this: under setting [1], 2.47 ± 0.28; under setting [2], 2.58 ± 0.51. On the same counts, the results for LSKILAKLERLKQQNEDLRRMAES [FUT8] are 2.9 ± 0.22 and 3.12 ± 0.24. The corresponding values for GFVFGTTLIMLLSLAAFSVISVVS [RTN3] are 3.2 ± 0.33 and 2.61 ± 0.58. In the case of AYDLSSVIASGSSVGHNNLIPLAN [CARM1], the protein stability index by setting is: under setting [1], 3.23 ± 0.4; under setting [2], 3.09 ± 0.28.

In the case of RAAYQQVIQPALPGQPLPGASVRG [TRAF3IP2], the protein stability index turned out to be 4.36 ± 0.35 under setting [1] and 4.18 ± 0.32 under setting [2]. In the case of VFHLPFYSSNQLHHFFCDIAPVLK [OR10K2], the protein stability index under setting [1] stood at 2.23 ± 0.48 and the protein stability index under setting [2] was found to be 2.12 ± 0.15.

On to KLGNLMSLDISGHMILENCSISKM [ZER1], for which the protein stability index by setting is: under setting [1], 2.1 ± 0.24; under setting [2], 2.24 ± 0.24. On the same counts, the results for FQELAGKELCAMSEEQFRQRSPLG [SPDEF] are 3.1 ± 0.42 and 3.59 ± 0.33. Turning to TDAPEQFISQVTVLKYFSHYMEEN [PLK2], the protein stability index under setting [1] was determined as 2.09 ± 0.28 and the protein stability index under setting [2] turned out to be 2.15 ± 0.23. The corresponding values for SVIKNYEDHFPLLFSEASECMLLV [MAGEA10] are 3.3 ± 0.74 and 2.33 ± 0.046.

RQLRRRALHPERAMDNHSDSEEEL [RETREG3] came in with a protein stability index under setting [1] of 5.47 ± 0.15 and a protein stability index under setting [2] of 5.51 ± 0.2. Regarding RAVLGANDPEKNFLTTAIRPHGIF [NSDHL], the protein stability index runs as follows: under setting [1], 2.73 ± 0.47; under setting [2], 3.33 ± 0.039. As for PKNDNVVIPECAHGGLYKPVQCHP [SMOC2], the protein stability index was found to be 3.44 ± 0.15 under setting [1] and 3.6 ± 0.36 under setting [2]. AFCSSDEELEDSKALLYLPIAPEV [RBBP5]: the protein stability index reads like this: under setting [1], 3.7 ± 0.21; under setting [2], 3.66 ± 0.28.

For KALSRKSTSFRVYIMAFDIKSEDM [FBXO33], the protein stability index runs as follows: under setting [1], 2.74 ± 0.54; under setting [2], 2.6 ± 0.55.

AALSASMASLLEDLSHIEGLSQAP [SERTAD1]: the protein stability index was found to be 2.81 ± 0.22 under setting [1] and 2.76 ± 0.26 under setting [2]. On the same counts, the results for AICGDRATGKHYGASSCDGCKGFF [HNF4A] are 2.8 ± 0.24 and 2.98 ± 0.31. The corresponding values for MGFAAKAMKSVHENMDLNKIDDLM [CHMP4C] are 3.59 ± 0.32 and 3.48 ± 0.3. The corresponding values for LTLYNPTGTALRFRVLCTAPAKYT [MOSPD3] are 2.79 ± 0.65 and 2.69 ± 0.48.

For GSSPKSKTKWTKEDGHRTSTSAVP [ADD1], the protein stability index amounted to 4.96 ± 0.17 under setting [1] and 4.81 ± 0.25 under setting [2]. For the sequence YGVASCEACKAFFKRTIQGSIEYS [ESRRA], the protein stability index was determined as 2.34 ± 0.22 under setting [1] and 2.52 ± 0.072 under setting [2]. For the sequence MDHIRIFQEQVEKLKALHVDSAEY [NR2F2], the protein stability index runs as follows: under setting [1], 3.07 ± 0.44; under setting [2], 3.2 ± 0.36. The corresponding values for KCMRNGPNALIASLALGDLIYVVI [EDNRA] are 3.49 ± 0.4 and 2.79 ± 0.79. Turning to MCQRLRSMQYNGSYFDRGAKGGSR [DFFB], the protein stability index was found to be 3.26 ± 0.26 under setting [1] and 3.48 ± 0.42 under setting [2]. For the sequence FIAGLCVFIISTLAIDFIDEGRLL [SOAT2], the protein stability index runs as follows: under setting [1], 2.81 ± 0.6; under setting [2], 3.01 ± 0.33. As for ESSNDFGPYEGGGPVAGLDDSGGP [ZBTB22], the protein stability index reads like this: under setting [1], 5.03 ± 0.42; under setting [2], 5 ± 0.13. On the same counts, the results for REEEDRALPENEFKKQIWLLFEYP [KCNA4] are 2.7 ± 0.19 and 2.94 ± 0.46.

For the sequence FVQILLALHHVHTHLILHRDLKTQ [NEK8], the protein stability index reads like this: under setting [1], 2.98 ± 0.064; under setting [2], 3.01 ± 0.2. The corresponding values for TPSSYAPSHPPRPLLPLDMQGNQI [ZBTB22] are 4.14 ± 0.1 and 4.3 ± 0.14.

Regarding KECPFRVNKVCGAACSSKRSPIID [SERPINB5], the protein stability index reads like this: under setting [1], 3.02 ± 0.2; under setting [2], 3.12 ± 0.38. With RRGLLVSLNELMIVIGILSAYISN [SLC2A12], the protein stability index by setting is: under setting [1], 3.05 ± 0.72; under setting [2], 2.67 ± 0.84. For ADRPFSAPWWFWLSLTGVSLAGAL [POMT2], the protein stability index reads like this: under setting [1], 2.93 ± 0.7; under setting [2], 3 ± 0.48. Turning to KRESPGVGGGSGDEASAATPPSSR [ZBTB22], the protein stability index stood at 5.53 ± 0.23 under setting [1] and 5.451 ± 0.044 under setting [2].
